Laboratory results taken from patent US20090123452A1 (TORREY PINES INSTITUTE FOR MOLECULAR STUDIES AND CATALYST …, published 2009).
Residue numbers refer to the chain shown, from its start. Names and notes keep the numbering of the source. Read-outs that look alike come from different tables or passages of the source.

How the values were obtained:
[1] = biological target: T1, mutant antithrombin III AT3/SLGR-KI (human, UniProt P01008 33-464); experiment: phage display selection: complex with His-tagged AT3-SLGRKI bait captured by anti-His antibody on plate
T1 construct: RCL residues IAGRSL are replaced by SLGRKI; also called AT3 (AT3/SLGR-KI)
T1 chain: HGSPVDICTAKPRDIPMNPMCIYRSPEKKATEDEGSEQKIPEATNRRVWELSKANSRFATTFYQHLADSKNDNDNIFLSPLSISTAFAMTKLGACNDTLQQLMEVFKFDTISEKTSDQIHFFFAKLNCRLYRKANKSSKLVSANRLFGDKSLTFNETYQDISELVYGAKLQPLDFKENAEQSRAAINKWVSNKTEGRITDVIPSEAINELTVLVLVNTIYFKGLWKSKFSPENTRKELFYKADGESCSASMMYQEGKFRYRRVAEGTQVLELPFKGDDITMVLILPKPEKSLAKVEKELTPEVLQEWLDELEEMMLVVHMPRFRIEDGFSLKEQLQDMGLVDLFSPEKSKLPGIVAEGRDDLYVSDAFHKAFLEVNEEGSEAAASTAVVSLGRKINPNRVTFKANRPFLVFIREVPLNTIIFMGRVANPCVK

[2] = biological target: T1, mutant antithrombin III AT3/SLGR-KI; experiment: as above

B1: Mutant MT-SP1 clone CPC-0023085 (phage) (enzyme)
chain: VVGGTDADEGEWPWQVSLHALGQGHFCGASLISPNWLVSAAHCYIDDRGFRYSDPTQWTAFLGLHDQSQRSAPGVQERRLKRIISHPFFNDFTFDYDIALLELEKPAEYSSMVRPISLPDASHVFPAGKAIWVTGWGHTQYGGTGALILQKGEIRVINQTTCENLLPQQITPRMMCVGFLSGGVDSCQGDSGGPLSSVEADGRIFQAGVVSWGDGCAQRNKPGVYTRLPLFRDWIKENTGVSGSSGGGSEGGGSEGGGSEGGGSGGGSGSGDFDYEKMANANKGAMTENADENALQSDAKGKLDSVATDYGAAIDGFIGDVSGLANGNGATGDFAGSNSQMAQVGDGDNSPLMNNFRQYLPSLPQSVECRPFVFSAGKPYEFSIDCDKINLFRGVFAFLLYVATFMYVFSTFANILRNKES
notes: I41F/C122S
binding result [1]: binds

B2: Mutant MT-SP1 clone CPC-0025387 (phage) (enzyme)
chain: B1 chain
notes: I41F/C122S
binding result [1]: binds

B3: Mutant MT-SP1 clone CPC-0026232 (phage) (enzyme)
chain: B1 chain with L37M, V124D, Q218L
binding result [1]: binds

B4: Mutant MT-SP1 clone CPC-0025582 (phage) (enzyme)
chain: B1 chain with L165F, V241G
notes: I41F/C122S/L171F/V244G
binding result [1]: binds

B5: Mutant MT-SP1 clone CPC-0026100 (phage) (enzyme)
chain: B1 chain with I148V, V241G
notes: I41F/C122S/I154V/V244G
binding result [1]: binds

B6: Mutant MT-SP1 clone CPC-0027706 (phage) (enzyme)
chain: B1 chain with F26I, F92Y, I131V, Q188H, S197I
notes: F97Y/C122S/I136V/Q192H/S201I
binding result [1]: binds

B7: Mutant MT-SP1 clone CPC-0028333 (phage) (enzyme)
chain: B1 chain with F26I, T59K, F88L, F92Y, D214V
notes: T65K/F93L/F97Y/C122S/D217V
binding result [1]: binds

B8: Mutant MT-SP1 clone CPC-0027399 (phage) (enzyme)
chain: B1 chain with F26I, F94L
notes: F99L/C122S
binding result [1]: binds

B9: Mutant MT-SP1 clone CPC-0027797 (phage) (enzyme)
chain: B1 chain with F26I, H65R, P126S, D214V
notes: H71R/C122S/P131S/D217V
binding result [1]: binds

B10: Mutant MT-SP1 clone CPC-0019595 (phage) (enzyme)
chain: B1 chain with F26I, I131T, N158D, T160A, F179L, D214V
notes: C122S/I136T/N164D/T166A/F184(A)L/D217V (chymotrypsin numbering); the STII leader is not counted
binding result [1]: binds

B11: Mutant MT-SP1 clone CPC-0025876 (phage) (enzyme)
chain: B1 chain with L165F
notes: I41F/C122S/L171F
binding result [1]: binds

B12: Mutant MT-SP1 clone CPC-0028341 (phage) (enzyme)
chain: B1 chain with F26T, P167S, Q206L
notes: I41T/C122S/P173S/Q209L
binding result [2]: binds

B13: Mutant MT-SP1 clone CPC-0024153 (phage) (enzyme)
chain: B1 chain with A121T, V241G
notes: I41F/C122S/A126T/V244G
binding result [1]: binds

B14: Mutant MT-SP1 clone CPC-0025720 (phage) (enzyme)
chain: B1 chain with F26I, H138R, Q169R
notes: C122S/H143R/Q175R
binding result [1]: binds

B15: Mutant MT-SP1 clone CPC-0025366 (phage) (enzyme)
chain: B1 chain with D8E, T93P, T139I
notes: D23E/I41F/T98P/C122S/T144I
binding result [1]: binds

B16: Mutant MT-SP1 clone CPC-0027484 (phage) (enzyme)
chain: B1 chain with F26I, N90K
notes: N95K/C122S
binding result [2]: binds

B17: Mutant MT-SP1 clone CPC-0028017 (phage) (enzyme)
chain: B1 chain with F26I, D214V
notes: C122S/D217V
binding result [1]: binds
